Data: patent publication US20220042033A1, “COMPOSITION AND METHOD FOR CONFERRING AND/OR ENHANCING TOLERANCE AGAINST HERBICIDES BY USING VARIANTS OF PPO” (FarmHannong Co., Ltd., priority 2017, published 2022)

Key:
MxPPO [1] = experiment: Herbicide tolerance test of MxPPO wild type and variants in PPO-deficient E. coli BT3(ΔPPO), growth on herbicide-containing LB agar; type: cell-based, Myxococcus xanthus; conditions: relative to MxPPO WT, light; for Herbicide tolerance, tiafenacil: 2000 μM (FIG. 14); for Herbicide tolerance, flumioxazin: up to 400 μM (FIGS. 15-17); for Herbicide tolerance, sulfentrazone: up to 1000 μM (FIGS. 18-20)
Procedure: Then, the extent of tolerance was evaluated.

MxPPO [2] = experiment: PPO enzyme activity of purified MBP-fused MxPPO wild type and variants; type: biochemical, Myxococcus xanthus; conditions: PPO enzyme activity of purified MxPPO protein, relative to wild type

Molecule | Herbicide tolerance, tiafenacil (MxPPO [1]) | Herbicide tolerance, flumioxazin (MxPPO [1]) | Herbicide tolerance, sulfentrazone (MxPPO [1]) | Activity (%) (MxPPO [2])
I168C + I311M + M365I: MxPPO (SEQ ID NO: 3) variant (protein, Synthetic (Protoporphyrinogen IX oxidase (MxPPO) of Myxococcus xanthus)) MHHMPRTTGMNVAVVGGGISGLAVAHHLRSRGTDAVLLESSARLGGAVGTHALAGYLVEQGPNSFLDREPATRALAAALNLEGRIRAADPAAKRRYVYTRGRLRSVPASPPAFLASDILPLGARLRVAGELFSRRAPEGVDESLAAFGRRHLGHRATQVLLDAVQTGCYAGDVEQLSVAATFPMLVKMEREHRSLILGAIRAQKAQRQAALPAGTAPKLSGALSTFDGGLQVLIDALAASLGDAAHVGARVEGLAREDGGWRLIIEEHGRRAELSVAQVVLAAPAHATAKLLRPLDDALAALVAGIAYAPMAVVHLGFDAGTLPAPDGFGFLVPAEEQRRMLGAIHASTTFPFRAEGGRVLYSCIVGGARQPGLVEQDEDALAALAREELKALAGVTARPSFTRVFRWPLGIPQYNLGHLERVAAIDAALQRLPGLHLIGNAYKGVGLNDCIRNAAQLADALVAGNTSHAP | + (1-9 fold higher tolerance) | ++ (10-99 fold higher tolerance) | + (1-9 fold higher tolerance) | 47
A170C + I311M + M365I: MxPPO (SEQ ID NO: 3) variant (protein, Synthetic (Protoporphyrinogen IX oxidase (MxPPO) of Myxococcus xanthus)) MHHMPRTTGMNVAVVGGGISGLAVAHHLRSRGTDAVLLESSARLGGAVGTHALAGYLVEQGPNSFLDREPATRALAAALNLEGRIRAADPAAKRRYVYTRGRLRSVPASPPAFLASDILPLGARLRVAGELFSRRAPEGVDESLAAFGRRHLGHRATQVLLDAVQTGIYCGDVEQLSVAATFPMLVKMEREHRSLILGAIRAQKAQRQAALPAGTAPKLSGALSTFDGGLQVLIDALAASLGDAAHVGARVEGLAREDGGWRLIIEEHGRRAELSVAQVVLAAPAHATAKLLRPLDDALAALVAGIAYAPMAVVHLGFDAGTLPAPDGFGFLVPAEEQRRMLGAIHASTTFPFRAEGGRVLYSCIVGGARQPGLVEQDEDALAALAREELKALAGVTARPSFTRVFRWPLGIPQYNLGHLERVAAIDAALQRLPGLHLIGNAYKGVGLNDCIRNAAQLADALVAGNTSHAP | – | ++ (10-99 fold higher tolerance) | + (1-9 fold higher tolerance) | 69
I168C + L332T + M365V: MxPPO (SEQ ID NO: 3) variant (protein, Synthetic (Protoporphyrinogen IX oxidase (MxPPO) of Myxococcus xanthus)) MHHMPRTTGMNVAVVGGGISGLAVAHHLRSRGTDAVLLESSARLGGAVGTHALAGYLVEQGPNSFLDREPATRALAAALNLEGRIRAADPAAKRRYVYTRGRLRSVPASPPAFLASDILPLGARLRVAGELFSRRAPEGVDESLAAFGRRHLGHRATQVLLDAVQTGCYAGDVEQLSVAATFPMLVKMEREHRSLILGAIRAQKAQRQAALPAGTAPKLSGALSTFDGGLQVLIDALAASLGDAAHVGARVEGLAREDGGWRLIIEEHGRRAELSVAQVVLAAPAHATAKLLRPLDDALAALVAGIAYAPIAVVHLGFDAGTLPAPDGFGFTVPAEEQRRMLGAIHASTTFPFRAEGGRVLYSCVVGGARQPGLVEQDEDALAALAREELKALAGVTARPSFTRVFRWPLGIPQYNLGHLERVAAIDAALQRLPGLHLIGNAYKGVGLNDCIRNAAQLADALVAGNTSHAP | + (1-9 fold higher tolerance) | +++ (100-999 fold higher tolerance) | ++ (10-99 fold higher tolerance) | 49
